This assay addresses actin (UniProt P68135). The assay can be described thus: ITC; Tmod or Lmod construct in the syringe titrated into LatB-actin in the cell (LatB:actin 1.2:1); 20 mM HEPES pH 7.5, 100 mM NaCl, 0.2 mM ATP, 1 mM DTT; temperature and concentrations listed in the figures. (In general: Isothermal titration calorimetry measures the heat released or taken up as one component is titrated into another.)

Experimental findings from publication PMC4571291 are described below.

Chain of Tmod1_(ABS1) (P28289 whole entry, the tested form may be a part): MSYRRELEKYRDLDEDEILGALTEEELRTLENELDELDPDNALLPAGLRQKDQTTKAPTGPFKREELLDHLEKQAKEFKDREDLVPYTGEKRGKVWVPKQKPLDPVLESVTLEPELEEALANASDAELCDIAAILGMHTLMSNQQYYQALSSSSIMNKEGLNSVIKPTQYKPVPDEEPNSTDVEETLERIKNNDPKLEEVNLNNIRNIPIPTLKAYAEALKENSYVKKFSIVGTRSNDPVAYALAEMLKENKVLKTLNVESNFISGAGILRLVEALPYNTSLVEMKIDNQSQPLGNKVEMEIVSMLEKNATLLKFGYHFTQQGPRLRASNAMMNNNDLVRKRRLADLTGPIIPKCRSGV

Usually stoichiometry N stands for the number of molecules, sites or subunits per partner or assembly. As for “Tmod1_(ABS1) (from UniProt P28289-1 1-359) (domain or fragment)”, the stoichiometry N came out at 1.
